{
  "source": "patent US10737081B2",
  "about": "“Painless and patchless shooting microstructure” (JUVIC INC., priority 2013, dated 2020)",
  "key": {"diabetogenic mice": {"tested_on": "diabetogenic mice", "test": "In vivo delivery efficiency test: plasma glucose levels in diabetogenic mice", "details": "0.2 IU insulin, subcutaneous injection", "description": "In this experiment, male C57BL/6 mice (7 to 8 week-old, OrientBio) were used. Animal experiments were conducted according to the Guide for the Care and Use of Laboratory Animals by the Severance Hospital Ethics Committee (Reference No.: 09-013, College of Pharmacy, Yonsei University, Korea). […] For successful diabetes induction, the blood glucose concentrations of all the mice were measured using a OneTouch Verio IQ system. […] Diabetogenic mice were divided into four groups, as follows: (a) an untreated group (a negative control); (b) a subcutaneously injected group (0.2 IU, a positive control); […] The mice were fasted during an experiment period, and freely fed with water. […] After 6 hours of the treatment, blood samples (0.1 ml) were taken from wounded tail vein areas every one hour. […] The plasma glucose levels per hour in each group were measured using a glucose CII-Test kit. The plasma insulin concentrations were measured using an insulin ELISA kit (ALPCO). To examine the in vivo delivery efficiency by DMN patch and subcutaneous injection (SC) methods and through the microlancer, insulin was administered to diabetogenic mice using each of the methods, and changes in blood glucose levels were measured. […] Insulin was administered using each of the methods, and changes in plasma glucose levels in the diabetogenic mice were measured after the elapse of 6 hours (see FIG. 17B)."}, "[1]": {"test": "In vivo delivery efficiency test: plasma insulin concentrations in diabetogenic mice", "details": "0.2 IU insulin, subcutaneous injection", "description": "In this experiment, male C57BL/6 mice (7 to 8 week-old, OrientBio) were used. Animal experiments were conducted according to the Guide for the Care and Use of Laboratory Animals by the Severance Hospital Ethics Committee (Reference No.: 09-013, College of Pharmacy, Yonsei University, Korea). The mice were anesthetized with Avertin (2,2,2-tribromoethanol, Sigma-Aldrich), and 50 mg/kg of streptozotocin in a sodium citrate buffer (pH=4.5) was intravenously injected into the mice to induce diabetes. For successful diabetes induction, the blood glucose concentrations of all the mice were measured using a OneTouch Verio IQ system.\nDiabetogenic mice were divided into four groups, as follows: (a) an untreated group (a negative control); (b) a subcutaneously injected group (0.2 IU, a positive control); (c) a patch-treated group (0.2 IU insulin-loaded DMNs); and (d) a microlancer-treated group (0.2 IU insulin-loaded DMNs) (n=5 per group). The mice were fasted during an experiment period, and freely fed with water. The back regions of the mice were shaved using an electric shaver, and 0.2 IU of insulin was administered by means of a DMN patch through a microlancer or by subcutaneous injection. […] The plasma glucose levels per hour in each group were measured using a glucose CII-Test kit. The plasma insulin concentrations were measured using an insulin ELISA kit (ALPCO)."}},
  "data": [
    {"substance": "insulin: Humalog insulin purchased from Eli Lilly; 0.2 IU subcutaneously injected as positive control", "values": [
      {"measurement": "time of lowest blood glucose level compared to insertion through the microlancer", "setting": "diabetogenic mice", "value": "an hour earlier"},
      {"measurement": "maximum plasma insulin concentration", "setting": "[1]", "value": 156, "unit": "μIU/ml"},
      {"measurement": "time of peaks for the plasma insulin concentration", "setting": "[1]", "value": "an hour"}
    ]}
  ]
}
